Assay results as given in the supplement of paper PMC7125110.
± gives the standard error. Fewer inactive variants are shown than the library holds.

B1: glmS ribozyme (parent)
chain: AUAAAAGCGCCAGAACUACAGAAAUGUAGUUGACGAGGAGGAGGUUUAUCGAAUUUUCGGCGGAUGCCUCCAAA

Assays:
Settings in all cases: with glucosamine-6-phosphate
glucosamine-6-phosphate [1] = variants of: B1; assay: self-cleavage kobs at 40 uM GlcN6P; higher = faster cleavage; RNA array
Method in brief: (§1)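 Ribozyme variants carrying barcodes were transcribed in situ on sequenced MiSeq chips by E. coli RNA polymerase and tracked at 37 °C with a hybridised Cy3 probe. They were exposed to 40 μM to 10 mM glucosamine-6-phosphate in HEPES/KCl/Mg(OAc)2 buffer. kobs came from exponential decay fits of normalised per-tile medians, and kcat and KM from weighted Michaelis–Menten fits.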

glucosamine-6-phosphate [2] = variants of: B1; assay: self-cleavage kobs at 640 uM GlcN6P; higher = faster cleavage; RNA array
Method in brief: as §1

glucosamine-6-phosphate [3] = variants of: B1; assay: self-cleavage kobs at 2500 uM GlcN6P; higher = faster cleavage; RNA array
Method in brief: as §1

glucosamine-6-phosphate [4] = variants of: B1; assay: self-cleavage kobs at 10000 uM GlcN6P; higher = faster cleavage; RNA array
Method in brief: as §1

glucosamine-6-phosphate [5] = variants of: B1; assay: self-cleavage kobs at 160 uM GlcN6P; higher = faster cleavage; RNA array
Method in brief: as §1

Row | Variant | self-cleavage kobs at 40 uM GlcN6P (glucosamine-6-phosphate [1]) [s⁻¹] | self-cleavage kobs at 640 uM GlcN6P (glucosamine-6-phosphate [2]) [s⁻¹] | self-cleavage kobs at 2500 uM GlcN6P (glucosamine-6-phosphate [3]) [s⁻¹] | self-cleavage kobs at 10000 uM GlcN6P (glucosamine-6-phosphate [4]) [s⁻¹] | self-cleavage kobs at 160 uM GlcN6P (glucosamine-6-phosphate [5]) [s⁻¹]
1 | AUAAAAGCGCCAGAACUACAGAAAUGUAGUUGACCAGGAGGAGGUGUAUCGAAUUUUCGGCGGAUGCCUGCAAA [G35C U46G C70G] | < 1e-05 | < 1e-05 | < 1e-05 | < 1e-05 | –
2 | AUAAAAGCGCCAGAACUACAGAAAUGUAGUUGACGAGGAGGGGUUUUAUCGAAUUUUCGGCGGAUGCCUCCAAA [A42G G44U] | < 1e-05 | – | – | 3.58e-05 ± 1.2e-05 | < 1e-05
3 | AUAAAAGCGUCAGCACUACAGAAAUGUAGUUGACGAGGAGGAGGUUUAUCGAAUUUUCGGUGGAUGCCUCCAAA [C10U A14C C61U] | < 1e-05 | – | – | < 1e-05 | –
4 | AUAAAAGCGCCAGAACUACAGAAAUGUAGGUGACGAGGAGGAGGUUUAUCGAAUUUUCGGCGGAUGCCCCCAAA [U30G U69C] | 0.000101 ± 2.9e-05 | 0.00045 ± 0.00019 | 6.49e-05 ± 3.1e-05 | 0.000535 ± 0.00011 | –
5 | AUAAAAGCGCCAGAACUACAGAAAUGUAGUUGACGACGGGGAGGUUUAUCGAAUUUUCGGCGGAUGCCUCCAAA [G37C A39G] | < 1e-05 | – | – | 3.63e-05 ± 7.3e-06 | –
6 | AUAAAAUCGCUAGAACUACAGAAAUGUAGUUGUCGAGGACGAGGUUUAUCGAAUUUUCGGCGGAUGCCUCCAAA [G7U C11U A33U G40C] | < 1e-05 | – | < 1e-05 | < 1e-05 | –
7 | AUAAAAGCGCCAGAACUACAGAAAUGUAGUUGACGAGGAGGAGGUUUAUCGAUUUAUCGGCGGAUGCCUUCAAA [A53U U56A C70U] | 0.000179 ± 3.4e-05 | – | – | 0.00382 ± 0.0011 | –
8 | AUAAAAGCGUCAGAACUACAGAAAUGUACUUGACGAGGAGGAGGUUUAUCGAAUUUUCGGAGGAUGCCUCCAAA [C10U G29C C61A] | < 1e-05 | – | – | – | –
9 | AUAAAAACGCCAGAACUACAGAAAUGUAGUUGACGAGGAGGAGGUUUAUCGAAUUUUCAGCGGAUGCCUCCAAA [G7A G59A] | < 1e-05 | < 1e-05 | < 1e-05 | < 1e-05 | < 1e-05
10 | AUAAAAGCGCCAGAACUACAGAAAUGUAGUUGACGAGGAGGAGGUUUAUCCAAUUUUGGGCGGAUGCCUCCAAA [G51C C58G] | < 1e-05 | – | – | – | –
11 | AUAAAAGCGCCAGAACUACAGAAAUGUAGUUGACGAAGAGGAGGUUUAUCGCAUUUUCGGAGGAUGCCUCCAAA [G37A A52C C61A] | < 1e-05 | – | – | < 1e-05 | –
12 | AUAAACGCGUCAGAACUACAGAAAUGUAGUUGACGAGGAGGAGGUUUAUCGAAUUUUCGGCGGAUGACUCCAAA [A6C C10U C67A] | < 1e-05 | – | – | – | –
13 | AUAAAAGCGCCAGAACUACAGAAAUGUAGUUGACGAGGUGGAGGUUUAUCGAAUUUUCGUCGGAUGCCUCCAAA [A39U G60U] | < 1e-05 | < 1e-05 | – | < 1e-05 | < 1e-05
14 | AUAAAAGUGCCAGAACUACAGAAAUGUAAUUGACGAGGAGGAGGUUUAUCGAAUUUUCGUCGGAUGCCUCCAAA [C8U G29A G60U] | < 1e-05 | < 1e-05 | – | < 1e-05 | –
15 | AUAAAAGCGCCCGAACUACAGAAAUGUAGUUGACGAGGAGGAGGUUUAUCGAAUUUUCGGCGGAUGCCUCAAAA [A12C C71A] | 6.84e-05 ± 9.7e-06 | 0.000423 ± 6.6e-05 | 0.00201 ± 0.0003 | 0.00229 ± 0.00033 | –
16 | AUAAAAGCGCCAGAACUACAGAAAUGUAGUUGAAGAGGAGGAGGUUUAUCGAAAUUUCGGCUUAUGCCUCCAAA [C34A U54A G62U G63U] | < 1e-05 | < 1e-05 | – | < 1e-05 | –
17 | AUAAAAGCGCCAAAACUACAGAAAUGUAGUCGACGUGGAGGAGGUUUAUCGAAUUUUAGCCAGAUGGCUCCAAA [G13A U31C A36U C58A G60C G62A C67G] | 6.61e-05 ± 3.2e-05 | – | 0.000425 ± 0.00017 | – | –
18 | AUAAAAGCGCCAGAACUACAGAAAUGUAGUUGACGAGGAGGAGGUUUAUCGAAUUUUCGCCGGCUGCCUCCAAA [G60C A64C] | < 1e-05 | < 1e-05 | < 1e-05 | < 1e-05 | < 1e-05
19 | AUAAAAGAGCCAGAACUACAGAAAUUUAGUUGCCGAGGAGGAGGUUUAUCGAAUUUUCGGCGGAUGCCUCCAAA [C8A G26U A33C] | < 1e-05 | – | – | – | –
20 | AUAAAAGCGCCAGAACUACAGAAAUGUAGUUGACGAGGAGCAGGUUUAUCGAAUUUUCGUCGGAUGCCUCCAAA [G41C G60U] | < 1e-05 | < 1e-05 | < 1e-05 | – | < 1e-05
21 | AUAAAAGCUCCAGAGCUACAGAAAUGUAGUUGACGAGGAGGAGGUUUAUCGAAUUUUCGGCGGAUGCCUCCAAA [G9U A15G] | < 1e-05 | < 1e-05 | < 1e-05 | – | –
22 | AUAAAAGCUCCAGAACUACAGAAAUGUAGUUGACCAGGAGGAAGUUUAUCGAAUUUUCGGCGGAUGCCUCCAAA [G9U G35C G43A] | < 1e-05 | < 1e-05 | – | – | < 1e-05
23 | AUAAAAGCGCCAGAACUACAGAAAUGUAGUUGACGAGGAGGAGGUUUAUCGAAAUUUCGGCGGAUAGCUCCAAA [U54A G66A C67G] | 5.57e-05 ± 1.5e-05 | – | 0.000119 ± 4.7e-05 | 0.000693 ± 0.00017 | –
24 | AUAAAAGCGCCAGAACUACAGAAAUGUAGUUGACGAGCAGGAGGUUUAUCGAAUUUUCGCCGGAUGCCUUCAAA [G38C G60C C70U] | < 1e-05 | – | – | – | –
25 | AUAAAUGCGCCAGAACUACAGAAAUGUAGUUGACGAGGAGGAGGUUUAGCGAAUUUUCGGCGGAUGCCUCCAAA [A6U U49G] | < 1e-05 | < 1e-05 | < 1e-05 | – | < 1e-05
26 | AUAAAAGCGCCAGAACUACAGAAAUGUAGGUGACGAGGAGGAGGUUUAUCCAAUUUUCGGCGGAUGCCUCCAAA [U30G G51C] | < 1e-05 | – | – | – | –
27 | AUAAAAGCGCGAGAACUACAGAAAUGUAGUAGACGAGGAGGAGGUUUAUGGAAUUUGCGGCGGAUGCCUCCAAA [C11G U31A C50G U57G] | 0.000129 ± 3.6e-05 | – | 7.48e-05 ± 3e-05 | 5.06e-05 ± 1.6e-05 | –
28 | AUAAAAGCGCCAGAACUACAGAAAUGUAUUUGACGAGGAGGAGGUUUAUCGCAUUUUCGGCGGAUACCUCCAAA [G29U A52C G66A] | < 1e-05 | – | – | – | –
